Assay results from patent US20130196320A1, “METHOD FOR IMPROVING CLEAVAGE OF DNA BY ENDONUCLEASE SENSITIVE TO METHYLATION” (CELLECTIS, priority 2010, published 2013).

What was measured:
ADCY9.1 DNA target = test: In vitro single turn over cleavage assay with ADCY9.1; type: biochemical
Description: FIG. 13: In vitro cleavage of unmethylated or methylated ADCY9.1 by ADCY9. A constant amount of ADCY9.1 duplex (50 nM) was incubated with an excess of ADCY9 (1.5 μM, final concentration) in the reaction buffer (10 mM Tris-HCl, 150 mM NaCl, pH8) at 37° C. Cleavage reaction was triggered by the addition of MgCl2 and then stopped after different time lengths by the addition of the stop buffer. This was followed by one hour of incubation at 37° C. to digest ADCY9 and release free DNA molecules. Cleaved and uncleaved DNA products were separated by PAGE using a TGX Any kD precast gel (Bio-Rad), stained with SYBR Green and then quantified using Quantity One software (Bio-Rad). Disappearance of substrate (uncleaved DNA) is plotted as a function of time.
To investigate the influence of C1234 methylation on the nuclease activity of I-Cre I, in vitro single turn over cleavage assays were performed with either unmethylated or methylated C1234 duplexes (unmethylated C1234 composed of SEQ ID NO: 31+SEQ ID NO: 32, C1234_Me full composed of SEQ ID NO: 35+SEQ ID NO: 38, C1234_Me-6a/-5b composed of SEQ ID NO: 33+SEQ ID NO: 36, C1234_Me-3a/-2b composed of SEQ ID NO: 34+SEQ ID NO: 37, C1234_Me-3a composed of SEQ ID NO: 34+SEQ ID NO: 32, C1234_Me-2b composed of SEQ ID NO: 31+SEQ ID NO: 37, respectively). A constant amount of C1234 duplex (50 nM) was incubated with an excess of I-Cre I (1.5 μM, final concentration) in the reaction buffer (10 mM Tris-HCl, 150 mM NaCl, pH8) at 37° C. Cleavage reaction was triggered by the addition of MgCl2 and then stopped after different time lengths by the addition of the stop buffer (45% glycerol, 95 mM EDTA, 1.5% (w/v) SDS, 1.5 mg/mL proteinase K and 0.048% (w/v) bromophenol blue, final concentrations). This was followed by one hour incubation at 37° C. to digest I-Cre I and release free DNA molecules. Cleaved and uncleaved DNA products were separated by PAGE using a TGX Any kD precast gel (Bio-Rad), stained with SYBR Green and then quantified using Quantity One software (Bio-Rad). […]

[1] = test system: XPC4 target locus in 293H cells; test: Meganuclease-induced mutagenesis at XPC4 target locus by deep sequencing, siRNA targeting DNMT1; type: cell-based, human; settings: for mutagenesis, PCR fragments carrying a mutation: XPC4 meganuclease plasmid
Description: The human 293H cells (ATCC) were plated at a density of 1.2×10^6 cells per 10 cm dish in complete medium (DMEM supplemented with 2 mM L-glutamine, penicillin (100 IU/ml), streptomycin (100 μg/ml), amphotericin B (Fongizone: 0.25 μg/ml, Invitrogen-Life Science) and 10% FBS). The next day, cells were transfected with 5 μg of empty vector pCLS003 (SEQ ID NO: 65) and 1 nM or 5 nM of si_DNMT1 composed of mixture of two siRNA DNMT1—1 ([…], SEQ ID NO: 66) and DNMT1—2 ([…], SEQ ID NO: 67) or with si_AS, a siRNA control with no known human target, using Lipofectamine 2000 as transfection reagent (Invitrogen) according to the manufacturer's protocol. The day after, cells were re-platted at the density of 1.2×10^6 cells per 10 cm. 24 hours after, cells were transfected again with 1 nM or 5 nM of siDNMT1 or si_AS in presence of 3 μg of meganuclease expressing vector (pCLS2510; SEQ ID NO: 68) and 2 μg of empty vector or 5 μg of empty vector (SEQ ID NO: 65), with Lipofectamine 2000 transfection reagent (Invitrogen) according to the manufacturer's protocol.
After genomic DNA extraction, the XPC4 target locus was amplified with specific primers flanked by specific adaptator needed for HTS sequencing on the 454 sequencing system (454 Life Sciences)
5,000 to 10,000 sequences per sample were analyzed.

Molecule	kcat (ADCY9.1 DNA target; ADCY9.1_Me −3a/−2b (fully methylated)) [s⁻¹]	substrate disappearance (ADCY9.1 DNA target; fully methylated ADCY9.1, even after 5 hours)	kcat (ADCY9.1 DNA target; unmethylated ADCY9.1) [s⁻¹]	mutagenesis, PCR fragments carrying a mutation ([1]; Si_AS 1 nM (control siRNA)) [%]	mutagenesis, PCR fragments carrying a mutation ([1]; Si_AS 5 nM (control siRNA)) [%]	mutagenesis, PCR fragments carrying a mutation ([1]; Si_DNMT1 1 nM) [%]	mutagenesis, PCR fragments carrying a mutation ([1]; Si_DNMT1 5 nM) [%]	PCR fragments carrying a mutation ([1]; XPC4 meganuclease, non relevant siRNA (si_AS))	mutations ([1]; XPC4 meganuclease, samples treated with si_DNMT1)
ADCY9: engineered meganuclease (SEQ ID NO: 3) designed to cleave adenylate cyclase 9 gene (protein) MANTKYNEEFLLYLAGFVDGDGSIIAQIKPNQSYKFKHQLSLTFRVTQKTQRRWFLDKLVDEIGVGYVRDSGSVSNYDLSEIKPLHNFLTQLQPFLELKQKQANLVLKIIEQLPSAKESPDKFLEVCTWVDQVAALNDSKTRKTTSETVRAVLDSLSEKKKSSPAAGGSDKYNQALSKYNQALSKYNQALSGGGGSNKKFLLYLAGFVDSDGSIIAQIKPDQSYKFKHQLGLTFQVTQKTQRRWFLDKLVDRIGVGYVRDRGSVSDYILSEIKPLHNFLTQLQPFLKLKQKQANLVLKIIEQLPSAKESPDKFLEVCTWVDQVAALNDSKTRKTTSETVRAVLDSLSEKKKSSP	<1.7e-06	no substrate disappearance was observed	0.00095 ± 1.7e-05						
XPC4: engineered meganuclease (SEQ ID NO: 2) designed to cleave xeroderma pigmentosum group C gene (XPC) (protein) MANTKYNEEFLLYLAGFVDGDGSIIAQIKPNQSHKFKHALQLTFKVTQKTQRRWFLDKLVDEIGVGYVQDSGSVSNYILSEIKPLHNFLTQLQPFLELKQKQANLALKIIEQLPSAKESPDKFLEVCTWVDQVAALNDSKTRKTTSETVRAVLDSLSEKKKSSPAAGGSDKYNQALSKYNQALSKYNQALSGGGGSNKKFLLYLAGFVDSDGSIIAQIKPNQSHKFKHQLSLAFQVTQKTQRRWFLDKLVDRIGVGYVRDRGSVSDYILSKIKPLHNFLTQLQPFLKLKQKQANLVLKIIEQLPSAKESPDKFLEVCTWVDQVAALNDSKTRKTTSETVRAVLDSLSEKKKSSP				0.3	0.2	4.8	7.6	0.2-0.3%	up to 7%
